In the supplement of paper PMC10126150 one finds switch fluorescence ratio data, which are given here for 120 sequences.

± gives the standard deviation of the averaged measurements.
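Note: ATP exposure 15 min at 22 °C before imaging.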

For the data set, the system named is ATP. Briefly: switch fluorescence ratio, 500 uM ATP over buffer (Cy3 cluster intensity, sum of 5 cycles each) (fold (ratio)); higher = stronger signal-on switching upon ATP binding; sequences stand for … in TCGTCGGCAGCGTCAGATGTGTATAAGAGACAGTTTTTTTTTTTTTTTTTTTTTTTTT…TC. As to conditions: aptamer strand: ATP DNA aptamer (quencher-CACCTGGGGGAGTATTGCGGAGGAAGG + anchor), 100 nM annealed; ATP concentration: 500 uM. A digest of the protocol: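 Imaging in selection buffer was followed by imaging after 15 min with 500 uM ATP at 22 °C, for Cy3-labelled switching-strand clusters annealed to 100 nM quencher-labelled ATP aptamer on a modified Illumina MiSeq flow-cell. Five of these buffer/ATP cycles ran, separated by NaOH stripping and re-annealing. The fluorescence ratio per cluster is summed target-cycle over summed buffer-cycle Cy3 intensity, averaged per switch-domain sequence; clusters outside 100-1000 RFU were removed.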
In the case of AGCTCCTCAT, the switch fluorescence ratio is 1.1 ± 0.03.
Next, TTTAACGTCG: 1.035 ± 0.005.
For CGGGGAGGCT the value was 0.988 ± 0.047; for GGGTAGCTTG, 0.989 ± 0.03.
For TCGTTGGTTG the value was 1.02 ± 0.051; for CGGGGGGCAG, 1.01 ± 0.024; for AATTTTAGCT, 1.008 ± 0.0066.
For the sequence GGCACAGATG, the switch fluorescence ratio amounted to 1.02 ± 0.015.
Next, TCTTTGAAGT: 1 ± 0.019.
Take AAGTTGATTG: the switch fluorescence ratio was found to be 1.023 ± 0.0031.
For ACCAATGGTC the value was 1.02 ± 0.041.
Next, CGTGTTAACT: 0.992 ± 0.047; TTTGGATGCG: 1.01 ± 0.077.
Next, AATAGAAGGA: 0.9888 ± 0.0037; TGCATGGCAA: 1.03 ± 0.013; TAGATTTTTA: 0.987 ± 0.028.
Turning to AACCAAGGTT, the switch fluorescence ratio is 1.05 ± 0.082.
GATGTTTGGG: the switch fluorescence ratio was determined as 0.987 ± 0.019.
For TCTTTGGGAC the value was 0.994 ± 0.028.
Next, TACCTTCTTG: 1.176 ± 0.0027.
Next, CATTTCCTGG: 1.01 ± 0.044; CTCGCTGCGT: 1.024 ± 0.0082.
Consider TAGCGTATGA, for which the switch fluorescence ratio amounted to 1.03 ± 0.014.
Next, TAATAGAGGG: 1.03 ± 0.027; GTTATTCATG: 0.988 ± 0.018.
For TTTTAGATAG the value was 1.06 ± 0.11; for GCGGGTATGT, 1.04 ± 0.023; for GGGAATTCTA, 0.991 ± 0.021.
On to TCGGCCAGTT, for which the switch fluorescence ratio amounted to 1.01 ± 0.037.
Next, CAGGGTGTTG: 0.964 ± 0.041; AGTCTCTCAT: 0.992 ± 0.03; AACGTATGTG: 0.937 ± 0.025.
As to GCTTCTGGGG, the switch fluorescence ratio is 1.03 ± 0.028.
As to GGAGGGACGG, the switch fluorescence ratio came to 1.029 ± 0.009.
For GGGGTTGTTA the value was 0.988 ± 0.021.
Next, AGAAAAAAGG: 1.23 ± 0.42; TCCGCGGGGA: 1.52 ± 0.59; TAGGTCAGGG: 0.965 ± 0.027.
Next, GAGAGGTTGT: 1 ± 0.024; GGGAGAGAGT: 0.999 ± 0.029; TGGGATGTGG: 0.986 ± 0.019.
Turning to ATGATTACGA, the switch fluorescence ratio amounted to 1.03 ± 0.026.
Next, CACAACGGTG: 1.04 ± 0.033; TAAGCGGAAT: 1.03 ± 0.013; CGTCCGACTT: 1.2 ± 0.089.
Next, TGGGACTAGT: 1.02 ± 0.059.
For AAATTTGTTA the value was 0.985 ± 0.04; for CAGTACGGTT, 1 ± 0.037.
For the sequence CTTTACAGGG, the switch fluorescence ratio came out at 1 ± 0.064.
Next, AAATGACAGC: 1.06 ± 0.037.
With ACTGATCAGA, the switch fluorescence ratio was 0.99427 ± 0.00038.
Next, ATGGTGTTCG: 0.987 ± 0.019.
Consider CTGACGTAAG, for which the switch fluorescence ratio was 1.26 ± 0.29.
Consider CTTTGAGCGA, for which the switch fluorescence ratio is 1.11 ± 0.032.
For TTGAGATACG the value was 1.001 ± 0.0057; for GAGGTGAGTT, 0.983 ± 0.01.
Next, TGACTCACGG: 1.08 ± 0.029; AATTGCGTTT: 1.01 ± 0.024; TTTGGGGGTC: 1.1 ± 0.24.
Next, ATTCGTCGTC: 0.983 ± 0.077; AATGGTGGTT: 0.996 ± 0.03.
Take TTTGAAGGAT: the switch fluorescence ratio came to 1.29 ± 0.35.
For CGGTGTTTTC the value was 0.972 ± 0.046; for GGGGGTACTT, 1 ± 0.03; for ATTTTAATAG, 0.9909 ± 0.0056.
For TGCGGGGGTG the value was 1.05 ± 0.018; for ATCTGGACTA, 0.984 ± 0.033.
For TTAAAATGGT the value was 1 ± 0.052; for TGTGGTTGGT, 1.01 ± 0.032; for ACGGGGGTTC, 1.01 ± 0.012.
With CGATGGGGGA, the switch fluorescence ratio worked out at 1.02 ± 0.018.
For TTTTTAATGT the value was 0.998 ± 0.062; for GAAGTGGGTT, 0.989 ± 0.024.
For GCATGTGGGT the value was 0.986 ± 0.017.
With GAAGCGTTTG, the switch fluorescence ratio came out at 0.98 ± 0.039.
As to TAAGGGGATC, the switch fluorescence ratio amounted to 0.987 ± 0.059.
For AAAAGTAATT the value was 0.985 ± 0.021; for GGCTAAAGCG, 0.974 ± 0.012; for TCTGGGGGAC, 1.05 ± 0.015.
Turning to TTGGCCACCG, the switch fluorescence ratio is 1.08 ± 0.096.
Next, TTGTATATTT: 0.982 ± 0.02; CAGTCGCGTG: 0.993 ± 0.018; TTATTAGACG: 0.976 ± 0.059.
Next, AAAGGTTTAC: 0.978 ± 0.025.
For GCATGAGCTG the value was 0.981 ± 0.014; for TGCCGAGGCC, 0.977 ± 0.0077.
As for GAGGTAGCGT, the switch fluorescence ratio was determined as 1.01 ± 0.015.
Next, TAGGGAGGCT: 0.992 ± 0.038; AAATGGTGGT: 1.02 ± 0.018.
For CTTTACTTTT the value was 1.014 ± 0.0061; for CAGTATGTCC, 0.966 ± 0.035; for CATTGTTGAG, 1.01 ± 0.049.
On to TTTTTATTGC, for which the switch fluorescence ratio is 1 ± 0.035.
As to TGTAAGAAAA, the switch fluorescence ratio amounted to 0.985 ± 0.052.
For the sequence GATTATTCTT, the switch fluorescence ratio is 1.03 ± 0.035.
As to GTGGCCTGGA, the switch fluorescence ratio came out at 1.01 ± 0.025.
For GATCTAGGGC the value was 1.02 ± 0.037.
Next, CGTTACGTGT: 1.026 ± 0.0042; TTTCGGTGCT: 1.03 ± 0.049.
Take GAGATTTAGC: the switch fluorescence ratio amounted to 1.03 ± 0.035.
For AGAAATCTTG the value was 0.983 ± 0.021; for TTCGAAGCAC, 2.74 ± 1.7.
Next, TCTACGGGGG: 1.032 ± 0.0024; TTCTAGGTCT: 1.02 ± 0.037; TAATGAGTGC: 0.997 ± 0.04.
For GGTAAGGGCC the value was 1.01 ± 0.034; for CTGTTAGGAT, 0.99 ± 0.028.
Take GACAGGGGCT: the switch fluorescence ratio stood at 1.06 ± 0.022.
Next, ATTAAATCCG: 1.042 ± 0.0099; CAGGTAAGCG: 0.969 ± 0.051.
As for TGGGAAATT, the switch fluorescence ratio worked out at 1.19 ± 0.19.
Next, TATTTATACA: 1.029 ± 0.0054; AAGGAGGGTA: 1.01 ± 0.038.
For TAAGGCCTGT the value was 0.9978 ± 0.0099; for GCGCTTGAAT, 0.982 ± 0.018; for TAAGGGGAAT, 1 ± 0.039.
Next, TTTTTACTGT: 1.01 ± 0.017; TTATTAATCG: 0.963 ± 0.081.
For the sequence GGGATCCGAC, the switch fluorescence ratio amounted to 1.05 ± 0.041.
Next, TAATTCAGGT: 1 ± 0.011.
